Reference: the array DNA melting data of Ke et al.

Test: melting temperature; melt of duplexes
Conditions: sodium 0.0675 M; strand 1 µM

Substance	Tm [°C]
CGACGTGCTAAATGTGCTG+CAGCACATAAAGCACGTCG (((((((((..((((((((+))))))))..)))))))))	53.1
CGACGTGCTCAATGTGCTG+CAGCACATCCCGCACGTCG ((((((((...((((((((+))))))))...))))))))	48
CGACGTGCTGAATGTGCTG+CAGCACATGATGCACGTCG ((((((((...((((((((+))))))))...))))))))	55.2
CGACGTGCCGGATGTGCTG+CAGCACATTGCGCACGTCG ((((((((...((((((((+))))))))...))))))))	49.9
CGACGTGCACAATGTGCTG+CAGCACATGAAGCACGTCG ((((((((...((((((((+))))))))...))))))))	49.9
CGACGTGCCGTATGTGCTG+CAGCACATCAAGCACGTCG ((((((((...((((((((+))))))))...))))))))	49.3
CGACGTGCGCAATGTGCTG+CAGCACATCTTGCACGTCG ((((((((...((((((((+))))))))...))))))))	48.7
CGACGTGCTCCATGTGCTG+CAGCACATTTAGCACGTCG (((((((((..((((((((+))))))))..)))))))))	49.4
CGACGTGCACCATGTGCTG+CAGCACATGGAGCACGTCG ((((((((.((((((((((+)))))))))).))))))))	58.8
CGACGTGCATAATGTGCTG+CAGCACATTAAGCACGTCG ((((((((.((((((((((+)))))))))).))))))))	55.1
CGACGTGCGCGATGTGCTG+CAGCACATTTTGCACGTCG ((((((((...((((((((+))))))))...))))))))	48.9
CGACGTGCCAAATGTGCTG+CAGCACATTGGGCACGTCG (((((((((.(((((((((+))))))))).)))))))))	59.5
CGACGTGCGGTATGTGCTG+CAGCACATAGAGCACGTCG ((((((((..(((((((((+)))))))))..))))))))	56
CGACGTGCTGCATGTGCTG+CAGCACATGCGGCACGTCG ((((((((.((((((((((+)))))))))).))))))))	63
CGACGTGCTTTATGTGCTG+CAGCACATGATGCACGTCG ((((((((.(.((((((((+)))))))).).))))))))	52.1
CGACGTGCCCGATGTGCTG+CAGCACATATTGCACGTCG ((((((((...((((((((+))))))))...))))))))	47.7
CGACGTGCACAATGTGCTG+CAGCACATTAGGCACGTCG ((((((((..(((((((((+)))))))))..))))))))	50.6
CGACGTGCCGCATGTGCTG+CAGCACATCACGCACGTCG ((((((((...((((((((+))))))))...))))))))	48.3
CGACGTGCTGTATGTGCTG+CAGCACATGGCGCACGTCG ((((((((...((((((((+))))))))...))))))))	48.9
CGACGTGCTCGATGTGCTG+CAGCACATGTAGCACGTCG (((((((((..((((((((+))))))))..)))))))))	52.3
CGACGTGCTAAATGTGCTG+CAGCACATAGTGCACGTCG ((((((((...((((((((+))))))))...))))))))	45.2
CGACGTGCCGGATGTGCTG+CAGCACATTAAGCACGTCG ((((((((...((((((((+))))))))...))))))))	50.4
CGACGTGCGTAATGTGCTG+CAGCACATTGGGCACGTCG ((((((((..(((((((((+)))))))))..))))))))	55
CGACGTGCGTAATGTGCTG+CAGCACATAAAGCACGTCG ((((((((.(.((((((((+)))))))).).))))))))	55

Substance	Tm [°C]
CGACGTGCCAGATGTGCTG+CAGCACATACGGCACGTCG (((((((((..((((((((+))))))))..)))))))))	54.7
CGACGTGCGCGATGTGCTG+CAGCACATGCTGCACGTCG ((((((((...((((((((+))))))))...))))))))	52.9
CGACGTGCTGGATGTGCTG+CAGCACATTGGGCACGTCG ((((((((...((((((((+))))))))...))))))))	52
CGACGTGCATAATGTGCTG+CAGCACATCTCGCACGTCG ((((((((...((((((((+))))))))...))))))))	47.6
CGACGTGCTCCATGTGCTG+CAGCACATACGGCACGTCG ((((((((...((((((((+))))))))...))))))))	47
CGACGTGCCCAATGTGCTG+CAGCACATTGAGCACGTCG ((((((((.((((((((((+)))))))))).))))))))	57.6
CGACGTGCCGGATGTGCTG+CAGCACATCATGCACGTCG ((((((((..(((((((((+)))))))))..))))))))	54.8
CGACGTGCGTTATGTGCTG+CAGCACATTATGCACGTCG ((((((((.(.((((((((+)))))))).).))))))))	53
CGACGTGCCCAATGTGCTG+CAGCACATGTGGCACGTCG (((((((((..((((((((+))))))))..)))))))))	56.2
CGACGTGCTTCATGTGCTG+CAGCACATCAGGCACGTCG ((((((((.(.((((((((+)))))))).).))))))))	49.1
CGACGTGCAGTATGTGCTG+CAGCACATGGTGCACGTCG (((((((((..((((((((+))))))))..)))))))))	53.9
CGACGTGCCTGATGTGCTG+CAGCACATGAAGCACGTCG ((((((((.(.((((((((+)))))))).).))))))))	49.8
CGACGTGCTGTATGTGCTG+CAGCACATTACGCACGTCG ((((((((...((((((((+))))))))...))))))))	51
CGACGTGCCTTATGTGCTG+CAGCACATCGCGCACGTCG ((((((((...((((((((+))))))))...))))))))	47.2
CGACGTGCGCAATGTGCTG+CAGCACATTTGGCACGTCG ((((((((..(((((((((+)))))))))..))))))))	52.5
CGACGTGCACGATGTGCTG+CAGCACATGCAGCACGTCG ((((((((...((((((((+))))))))...))))))))	45.9
CGACGTGCTAAATGTGCTG+CAGCACATAATGCACGTCG ((((((((...((((((((+))))))))...))))))))	50.7
CGACGTGCAGCATGTGCTG+CAGCACATCCTGCACGTCG ((((((((((.((((((((+)))))))).))))))))))	53.9
CGACGTGCTCAATGTGCTG+CAGCACATTCTGCACGTCG ((((((((..(((((((((+)))))))))..))))))))	50.8
CGACGTGCATAATGTGCTG+CAGCACATGAAGCACGTCG ((((((((.(.((((((((+)))))))).).))))))))	52.8
CGACGTGCTGCATGTGCTG+CAGCACATGGAGCACGTCG (((((((((.(((((((((+))))))))).)))))))))	61.2
CGACGTGCCACATGTGCTG+CAGCACATCCGGCACGTCG (((((((((..((((((((+))))))))..)))))))))	52.6
CGACGTGCCCAATGTGCTG+CAGCACATGTAGCACGTCG ((((((((...((((((((+))))))))...))))))))	50.6
CGACGTGCTATATGTGCTG+CAGCACATCCCGCACGTCG ((((((((...((((((((+))))))))...))))))))	47.2

Substance	Tm [°C]
CGACGTGCGCGATGTGCTG+CAGCACATATGGCACGTCG ((((((((...((((((((+))))))))...))))))))	50.1
CGACGTGCTAAATGTGCTG+CAGCACATTTAGCACGTCG (((((((((((((((((((+)))))))))))))))))))	61.6
CGACGTGCAAAATGTGCTG+CAGCACATGTAGCACGTCG ((((((((.(.((((((((+)))))))).).))))))))	53.1
CGACGTGCGAGATGTGCTG+CAGCACATACGGCACGTCG ((((((((...((((((((+))))))))...))))))))	50.1
CGACGTGCTACATGTGCTG+CAGCACATGGCGCACGTCG ((((((((..(((((((((+)))))))))..))))))))	54.7
CGACGTGCCTTATGTGCTG+CAGCACATTTTGCACGTCG ((((((((...((((((((+))))))))...))))))))	47.9
CGACGTGCCGGATGTGCTG+CAGCACATTGAGCACGTCG ((((((((...((((((((+))))))))...))))))))	50.8
CGACGTGCGAGATGTGCTG+CAGCACATATCGCACGTCG ((((((((((.((((((((+)))))))).))))))))))	60.4
CGACGTGCTAAATGTGCTG+CAGCACATTACGCACGTCG ((((((((..(((((((((+)))))))))..))))))))	51.4
CGACGTGCGTGATGTGCTG+CAGCACATACGGCACGTCG ((((((((...((((((((+))))))))...))))))))	51.1
CGACGTGCTATATGTGCTG+CAGCACATCGAGCACGTCG (((((((((..((((((((+))))))))..)))))))))	51.5
CGACGTGCGCTATGTGCTG+CAGCACATGGCGCACGTCG ((((((((((.((((((((+)))))))).))))))))))	63.2
CGACGTGCAAGATGTGCTG+CAGCACATCGGGCACGTCG ((((((((..(((((((((+)))))))))..))))))))	57
CGACGTGCACTATGTGCTG+CAGCACATTTCGCACGTCG ((((((((...((((((((+))))))))...))))))))	43.1
CGACGTGCATAATGTGCTG+CAGCACATGGCGCACGTCG ((((((((...((((((((+))))))))...))))))))	53
CGACGTGCCTTATGTGCTG+CAGCACATTCGGCACGTCG (((((((((..((((((((+))))))))..)))))))))	53
CGACGTGCCGCATGTGCTG+CAGCACATCAGGCACGTCG (((((((((..((((((((+))))))))..)))))))))	55.5
CGACGTGCTTCATGTGCTG+CAGCACATCACGCACGTCG ((((((((.(.((((((((+)))))))).).))))))))	47.8
CGACGTGCTAGATGTGCTG+CAGCACATACTGCACGTCG ((((((((...((((((((+))))))))...))))))))	50.9
CGACGTGCTATATGTGCTG+CAGCACATGTGGCACGTCG ((((((((.(.((((((((+)))))))).).))))))))	53.6
CGACGTGCTTAATGTGCTG+CAGCACATGTGGCACGTCG ((((((((...((((((((+))))))))...))))))))	51.9
CGACGTGCGCTATGTGCTG+CAGCACATATAGCACGTCG ((((((((..(((((((((+)))))))))..))))))))	53.8
CGACGTGCTTTATGTGCTG+CAGCACATAGAGCACGTCG (((((((((.(((((((((+))))))))).)))))))))	55.2
CGACGTGCCGCATGTGCTG+CAGCACATGAGGCACGTCG (((((((((.(((((((((+))))))))).)))))))))	62.6
